Data taken from the DeepSol protein solubility set.

Test: soluble on expression in E. coli; label from the status in PepcDB or PDB records

Sequence: MSTLGDLLAEHTVLPGSAVDHLHAVVGEWQLLADLSFADYLMWVRRDDGVLVCVAQCRPNTGPTVVHTDAVGTVVAANSMPLVAATFSGGVPGREGAVGQQNSCQHDGHSVEVSPVRFGDQVVAVLTRHQPELAARRRSGHLETAYRLCATDLLRMLAEGTFPDAGDVAMSRSSPRAGDGFIRLDVDGVVSYASPNALSAYHRMGLTTELEGVNLIDATRPLISDPFEAHEVDEHVQDLLAGDGKGMRMEVDAGGATVLLRTLPLVVAGRNVGAAILIRDVTEVKRRDRALISKDATIREIHHRVKNNLQTVAALLRLQARRTSNAEGREALIESVRRVSSIALVHDALSMSVDEQVNLDEVIDRILPIMNDVASVDRPIRINRVGDLGVLDSDRATALIMVITELVQNAIEHAFDPAAAEGSVTIRAERSARWLDVVVHDDGLGLPQGFSLEKSDSLGLQIVRTLVSAELDGSLGMRDARERGTDVVLRVPVGRRGRLML
- soluble on expression in E. coli: not soluble

Sequence: MAGDPNSMTVSHHNASTARFYALRLLPGQEVFSQLHAFVQQNQLRAAWIAGCTGSLTDVALRYAGQEATTSLTGTFEVISLNGTLELTGEHLHLAVSDPYGVMLGGHMMPGCTVRTTLELVIGELPALTFSRQPCAISGYDELHISSRLEHHHHHH
- soluble on expression in E. coli: soluble

Sequence: MSLKIMIVEDDRIQATSLKLKLRQLGLDDVILAENGFAALELCNKVGIDLMFCDIRMPQMDGISLLSQLSLQAPKLGVVILSAVEDTILELTHNMCSLAGFAYVDRLPKPYEVEDLQRVVEGFQKQTEPETSHKPAITLTCDEIEQAFLHDHIFNYYQPQFDFRSGAMVGVEALVRYEHPTHGMLSPAVFLPLIEQCGLHEKLFLTVLEKSVSALASIGADLQLSVNISQRNLQHSICDPILAICERYGFPASKLTLEMTEHEVYNGTPTSLANLARLRMYGVGLSIDDFGTGYASLGQLAQLPFTELKIDRSFVHDLATNYKHQQLTNMCLLLAQSLGLHCVVEGVENEETWQYLRQLGVDTCQGYYAAKPMPIAQLSELYTKNRRQCLGEGHHHHHH
- soluble on expression in E. coli: soluble

Sequence: SLKINQEEDTVSSEKNKLCDNNNNNNMVHTRHIYNVCELNKCLRENKLIPYNNIYKMKHLYLNILDTFDENILKHVNKAHLFIDSVIQKKKNILIHSMAGISRCSSIILSYVSKKNKKGIEYNFNLLKSKYPFAHPNENFYRQLLLYEKMNYTLDGCTDYHNIYK
- soluble on expression in E. coli: not soluble

Sequence: MGSDKIHHHHHHMNNLFDRIASRYVDGAEVFYGWMNMSLNQIKRAKKLGIKTIVECASSHPLYQLKILEEEYQKWNIPFKVGSQKIYLKALKEIKEADFIKIPSDFVQETFIKNGIPEEKLIKIPFGVDLEKFQPKDNYNNEIFRAVFVGTVSIRKGIPYLLKAWSELNLKDAQLYVVGAISPDVKIIIAKYSKLKNIIFTGRVKDIVPILRESNVFVFPSIEEGSALVTYEAMASGLPSIVTYNSGSIVRHGKDGFVIPIRDIKSLKDGIQYFYENPSEVKRMGKNARKHVEKYTWYNYGENLYNELKRLGLL
- soluble on expression in E. coli: not soluble

Sequence: MEARPRVAGIVLAAGKSTRMGRPKQLLPFRGRTVLECVVDNALASRLHRVVVVLGHEAEAVMPLLGHRCVTTVVNPLYGEGQSSSLKAGLGAMTEETDAALFLLGDQPLVTADTINLLIAAFADFPSPIVIPTFEGHRGNPVLFSRETFPRIEALSGDRGARGLFREYGDDIRSIDVRTPAILFDLDTEEDYLRLLREFPAVLEHHHHHH
- soluble on expression in E. coli: not soluble

Sequence: MGSDKIHHHHHHMCMYVFVKERVESRSFIPEEKIFELLEKTKNPDPARVREIIQKSLDKNRLEPEETATLLNVEDPELLEEIFEAARTLKERIYGNRIVLFAPLYIGNDCINDCVYCGFRVSNKVVERRTLTEEQLKEEVKALVSQGHKRLIVVYGEHPNYSPEFIARTIDIVYNTKYGNGEIRRVNVNAAPQTIEGYKIIKSVGIGTFQIFQETYHRETYLKLHPRGPKSNYNWRLYGLDRAMMAGIDDVGIGALFGLYDWKFEVMGLLYHTIHLEERFGVGPHTISFPRIKPAINTPYSQKPEHVVSDEDFKKLVAIIRLSVPYTGMILTAREPAKLRDEVIKLGVSQIDAGSRIGIGAYSHKEDDEDRKRQFTLEDPRPLDQVMRSLLKEGFVPSFCTACYRAGRTGEHFMEFAIPGFVKNFCTPNALFTLQEYLCDYATEETRKVGEEVIERELQKMNPKIRERVREGLEKIKRGERDVRF
- soluble on expression in E. coli: not soluble

Sequence: VIGYEYPDWIWGWTNTVTYKNFTLSFTLDGRVGGMAHSKTNQAMWNSGAHIDSDNQWRYDEVVNKKTNFVGSGVKVVSGSVDYDSNGKIIHDNRVFAPNDVQVSYESYMKSTNPYIGTVTRQNVFDETFFKLRDLSLSYQMPKSVCDKLHMKGLTLAFVGQNLFVWTKEFRFTDPDSDSDNLSSPSTRYLGFNVKLDF
- soluble on expression in E. coli: not soluble

Sequence: RSPICHLFSAINSSPFKIAPEKEQDLKTIVDDKKIIISVVSEPGFNIRVRKNESNNSHEIVLTVASLEYIWAFSNFFWVFTQEYSKSQKNNDEHFDLTGKNRLKKSDELLKWARKNLQTTGCESWPKKCPKPEAYLQGSEDSQVASEIFLCAIAWILHHEISHVVLQHPLVTTAFSTQEEREADSHATKWILGNLYESAPELKKRALGIATAVLCIQSLEVENYFCLQNTHPAAYERIYSNISCYPVGNEELIEALCTVMLQYLFHGKNINVNLDGESFSSILGDLLCDISRLTSN
- soluble on expression in E. coli: not soluble

Sequence: MDWIESVKSYIKVVEEGSFNAAAYQLNTSGSAISKRINWLEERVGVQLLTRTTRSVHQTEAGLLFYQRARLQLDQWQHLVDETRAINQTPAGLLKIGATLAVGSKFIIKYLDEFLATYPKIKVQLITTLPGQVPEHNVDVFISRELEQLNTFSYKATHLFEHHSGFFASKDYLDKYGTPNNINELKAHNMLIWGERPIKEIKLTNNKRVTLRGNFATTNPEALFHAAKRGMGILLTSQQMVIDDLQSGALVPILPEITTDHTRVNAYYPTLDYEHTRTQLFIKYLKTKLS
- soluble on expression in E. coli: not soluble

Sequence: MVFMYIGTVMVEKYNKPHLTFGDQAAQLQLRGLIINNPDDCIGALEKIGYYRLSAYWYPFRKKKPKASRTTPFNYRLDEFEPKHTFEEAVALYRFDESLRRLLLEALGVIEIQLRTKIAYFAGKQDRFIHLKRELLDPIACCRVPKNSTQDSYQIWLHKYHKQIKRAGREDFIRHYQARYGNDIPIWIATEILDFGGVSKLFDFLPKQLKNQIALSFGAKEGTVVAGWIRNFNYIRNVSAHHSRLWNRLVITRIQAPNRNVVDPSIFHLADVKNRKSP
- soluble on expression in E. coli: not soluble

Sequence: MHFETVIGLEVHVELKTDSKMFSPSPAHFGAEPNSNTNVIDLAYPGVLPVVNKRAVDWAMRAAMALNMEIATESKFDRKNYFYPDNPKAYQISQFDQPIGENGYIDIEVDGETKRIGITRLHMEEDAGKSTHKGEYSLVDLNRQGTPLIEIVSEPDIRSPKEAYAYLEKLRSIIQYTGVSDVKMEEGSLRCDANISLRPYGQEKFGTKAELKNLNSFNYVRKGLEYEEKRQEEELLNGGEIGQETRRFDESTGKTILMRVKEGSDDYRYFPEPDIVPLYIDDAWKERVRQTIPELPDERKAKYVNELGLPAYDAHVLTLTKEMSDFFESTIEHGADVKLTSNWLMGGVNEYLNKNQVELLDTKLTPENLAGMIKLIEDGTMSSKIAKKVFPELAAKGGNAKQIMEDNGLVQISDEATLLKFVNEALDNNEQSVEDYKNGKGKAMGFLVGQIMKASKGQANPQLVNQLLKQELDKRMAGDPLEHHHHHH
- soluble on expression in E. coli: not soluble

Sequence: MDVNTTYTKELSIIVPIYNEERELPELVRRLSAAAASITEDYELIFVNDGSRDGSMELLRSLCKGDDRFFYINLSRNFGHQIAVSAGLDHVRGKATVIIDGDLQDPPELIPELYAKYREGYEVVYAQRKHREGETWFKKATAKGFYRTMRKITSIDMPLDTGDFRLIDRKIVQCLREMPEQNKFLRGQIAWMGFRQTGVQFDRDERKYGQTNYPLRKMLALAIDGITGFSSRPLEWVAQ
- soluble on expression in E. coli: not soluble

Sequence: MGSDKIHHHHHHMADKPFRLVTRSDFDGLVCATLLKELALIDEITFVHPKDMQDGQIPVTERDITTNLPYVEGVHLCFDHHLSETIRVGKKANHIIDPLAPSAARVVYNYFGGKARFPRIPDDMMDAVDKGDSAQYNMEEVLHPGGWELLNFLMDARTGLGRFREFRIPNYQLMMELIDYCRDHAIEDILDLPDVSERVDLYREHEPRFKEQLKRCSTVHGNLVVLDLRDEDPIWAGNRFMIYALYPETNISIHVLWGRERRNTVFAVGKSIFNRSSNTNIGELMLGYGGGGHHAAGTCQVDNAQAADVLARLIARITEDG
- soluble on expression in E. coli: not soluble

Sequence: MAHHHHHHMEHLSVTKNSQMNNLAAYNNQEANYSLAAPNQEEYSENDLFYTFYDKFNEIFLFIQNLKENKNDLEDEVDDNLIKTLHNLCLEFLNYIKQINDFGHMNLSKNDQDLIIESYEKFVRQCKQYNDKPQVKQLENEISNLLDLLFNNTSGRHNSWRSGKKRKKREKEKKKLISPP
- soluble on expression in E. coli: soluble

Sequence: MGSDKIHHHHHHAGFIFLPKENETASTTVEEVKWLTYDQAVALSKKNPKPIFIDVYTDWCGWCKTMDKNTFSNHKVAAYLNKRFYSVKLNPEKKDTVHYKGVAMTNGALAGKIFHATSYPTTVYLEGDETLLQPIPGYQAPNDLYRIIHYIGENHYKTTTWDDFSKSFNESAE
- soluble on expression in E. coli: not soluble

Sequence: SNQEKLAKLQAQVRIGGKGTARRKKKVVHRTATADDKKLQSSLKKLAVNNIAGIEEVNMIKDDGTVIHFNNPKVQASLSANTFAITGHAEAKPITEMLPGILSQLGADSLTSLRKLAEQFPRQVLDSKAPKPEDIDEEDDDVPDLVENFDEASKNEAN
- soluble on expression in E. coli: soluble

Sequence: MGSDKIHHHHHHMSAPTPLAEASQIPTIPALSPLTAKQSKGNFFSSNPISSFVVDTYKQLHSHRQSLELVNPGTVENLNKEVSRDVFLSQYFFTGLRADLNKAFSMNPAFQTSHTFSIGSQALPKYAFSALFANDNLFAQGNIDNDLSVSGRLNYGWDKKNISKVNLQISDGQPTMCQLEQDYQASDFSVNVKTLNPSFSEKGEFTGVAVASFLQSVTPQLALGLETLYSRTDGSAPGDAGVSYLTRYVSKKQDWIFSGQLQANGALIASLWRKVAQNVEAGIETTLQAGMVPITDPLMGTPIGIQPTVEGSTTIGAKYEYRQSVYRGTLDSNGKVACFLERKVLPTLSVLFCGEIDHFKNDTKIGCGLQFETAGNQELLMLQQGLDADGNPLQALPQL
- soluble on expression in E. coli: not soluble

Sequence: MNRKAFLACVLMCVILTGCETAKKISEVIKNPDIQVGSLKEQPSEITVTLLTEPDTNTNAEGESAAVDVQLVYLTDDSKLQAADYDQIASTPLPDVLGKNYIDHQDFNLLPDTIKTLPPIKLDEKTQFIGVVAYFSDDQATEWKQIETVEGTGHHYRLLVHVRQSSIEMKKEDE
- soluble on expression in E. coli: soluble

Sequence: MKYEVVITSGNSNQAPIGAFFKGDFVTLHLYGGSHTFENLQKDGFYILNTCSPYLIAKSVLDDAGDYEYLDNDGIKIPYLKDSYKIELIEIKSRKIVETKNEFGSSKLMIVEGKPIFEKILNCNTSAYNRADGAVVEMAVLYSRKNMISKEEINDEITRLMKIIKKVGSKNHIELAKKLGV
- soluble on expression in E. coli: soluble

Sequence: MSLKIHCLKLKNKELNKEVAFYLTSIIRQALKNTEYKDQISSTVLPDIKIKLPIDSRGTPDWNYMERYRDREGHHHHHH
- soluble on expression in E. coli: soluble

Sequence: MGIRVVFERPQGGERAVLVQLALPGVDADKALAEFEELALSAKAEVLDCVLGARATPDAKYYVGKGKAEEIAHLVNMLDADLVLVNHELSPSQERNLERLFGCRVVDRSGLILDIFAQRARTFEGKLQVELAQLQHLSTRLIRGWTHLERQKGGIGLRGPGETQLETDRRLLRERIRYINKRLEKVRCSRDQNRQARRKASMPTVSLVGYTNAGKSTLFNVLTGEHTYVADQLFATLDPTMRKLELPGSSAAILADTVGFIRDLPHHLVEAFRATLEETQQADLLLHVIDISDPNWRETVFEVQKVLDELKVNNIPVIQVFNKIDLQEGWQPKIDYTEDSCKVWLSATTGAGLDLLKEAIATQLHGMILIEDIVIKPDQAKLRAQLYQLGAVLKESVDENGDWLMKIRITADQKRRLLSAAALEHHHHHH
- soluble on expression in E. coli: not soluble
